Kd data for two molecules are collected here from PMC4516285 (Biochemistry, 2015).

Test [1] deals with FliM 1-16 (Escherichia coli) (UniProt P06974). As to conditions: cited from earlier work.
In test [2] the target is T1, wild type Escherichia coli CheY (E. coli, UniProt P0AE67 2-129).
T1 sequence: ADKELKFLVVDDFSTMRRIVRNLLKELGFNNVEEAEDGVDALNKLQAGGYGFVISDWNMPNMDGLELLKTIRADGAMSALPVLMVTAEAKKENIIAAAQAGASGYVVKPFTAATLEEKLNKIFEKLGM
The test can be described thus: other fluorescence titration.

Turning to CheY (from UniProt P0AE67), in test [1], the Kd is 280 µM.

Take MGDSILSQAEIDALLN [FliM_(1–16) peptide (amino terminal 16 residues of E. coli FliM)]: the affinity in test [2], expressed as Kd, was 370 µM.

The term Kd denotes the concentration at which binding is half-saturated.
